Test [1] addresses human nerve growth factor (human), P01138.
For test [2] the target is unchanged. The source holds these as a separate data set.
Test [3] has the same target. The test is described as follows: cell-based or functional assay.

human nerve growth factor (human), P01138, sequence (P01138 122-241 limits assumed): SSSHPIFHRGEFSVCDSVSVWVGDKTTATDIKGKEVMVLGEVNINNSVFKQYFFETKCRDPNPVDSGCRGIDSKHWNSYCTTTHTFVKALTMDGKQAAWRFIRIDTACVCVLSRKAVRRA

B1: antibody E3 (full antibody) (antibody, human IgG2, kappa)
heavy: QVQLQESGPGLVKPSETLSLTCTVSGFSLIGYDLNWIRQPPGKGLEWIGIIWGDGTTDYNSAVKSRVTISKDTSKNQFSLKLSSVTAADTAVYYCARGGYWYATSYYFDYWGQGTLVTVSSASTKGPSVFPLAPCSRSTSESTAALGCLVKDYFPEPVTVSWNSGALTSGVHTFPAVLQSSGLYSLSSVVTVPSSNFGTQTYTCNVDHKPSNTKVDKTVERKCCVECPPCPAPPVAGPSVFLFPPKPKDTLMISRTPEVTCVVVDVSHEDPEVQFNWYVDGVEVHNAKTKPREEQFNSTFRVVSVLTVVHQDWLNGKEYKCKVSNKGLPSSIEKTISKTKGQPREPQVYTLPPSREEMTKNQVSLTCLVKGFYPSDIAVEWESNGQPENNYKTTPPMLDSDGSFFLYSKLTVDKSRWQQGNVFSCSVMHEALHNHYTQKSLSLSPGK
light: not shown
modifications: not checked
B1: the IC50 (read off the curve), NGF-dependent survival of E13.5 mouse trigeminal neurons (0.4 ng/ml human NGF, 48 h) (nM binding sites) in test [1] came to 0.02. In test [2], this molecule returned an IC50 (read off the curve), NGF-dependent survival of E13.5 trigeminal neurons (0.4 ng/ml human NGF, 48 h) of 8 pM. The molecule also came in with an NGF-elicited survival of E17/18 trigeminal neurons in test [3] of 20 nM.
